# From article PMC7495412
# What was measured:
# Assay in all cases: co-IP
# [1] = target: μ2-eGFP (rat AP2M1 with internal HA tag and eGFP) (rat) (UniProt P84092)
# [2] = target: σ2-eGFP (AP2S1 with C-terminal eGFP) (UniProt P62744)
# [3] = target: α-eGFP (hybrid mouse α-adaptin with eGFP inserted into the hinge region) (mouse) (UniProt P17427)
# Chain of UniProt P84092 (P84092 whole entry): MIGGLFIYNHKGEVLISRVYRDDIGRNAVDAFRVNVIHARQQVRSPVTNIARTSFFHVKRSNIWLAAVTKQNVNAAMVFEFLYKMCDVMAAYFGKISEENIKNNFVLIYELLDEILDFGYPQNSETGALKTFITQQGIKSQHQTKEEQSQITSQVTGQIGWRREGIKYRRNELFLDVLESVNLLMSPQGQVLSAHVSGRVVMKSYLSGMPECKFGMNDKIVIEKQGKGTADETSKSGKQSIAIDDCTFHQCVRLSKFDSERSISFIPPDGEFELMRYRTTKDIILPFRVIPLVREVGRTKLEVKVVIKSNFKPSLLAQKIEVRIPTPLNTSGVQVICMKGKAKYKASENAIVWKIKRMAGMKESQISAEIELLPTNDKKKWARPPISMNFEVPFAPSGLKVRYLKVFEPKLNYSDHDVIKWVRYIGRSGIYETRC
# Chain of UniProt P62744 (P62744 whole entry): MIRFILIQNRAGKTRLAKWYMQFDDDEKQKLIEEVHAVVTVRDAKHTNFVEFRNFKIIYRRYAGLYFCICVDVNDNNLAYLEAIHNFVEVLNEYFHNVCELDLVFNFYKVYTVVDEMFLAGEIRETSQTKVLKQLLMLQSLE
percent of the endogenous subunit pulled down [1] [%],percent of the endogenous subunit pulled down [2] [%],percent of the endogenous subunit pulled down [3] [%],Substance
94.1,98.7,–,endogenous α subunit of AP2 (α-adaptin) (from UniProt O94973 1-939) (natural protein)
–,79.5,99.3,endogenous μ2 subunit of AP2 (from UniProt Q96CW1 1-435) (natural protein)
68,–,78.8,endogenous σ2 subunit of AP2 (from UniProt P53680 1-142) (natural protein)
